According to ChEMBL document CHEMBL1811779, “Adenosine deaminase-like protein 1 (ADAL1): characterization and substrate specificity in the hydrolysis of N(6)- or O(6)-substituted purine or 2-aminopurine nucleoside monophosphates” (J Med Chem, 2011):
Active and inactive are the calls of the source. The rule behind the calls is not given here.

What was measured:
[1] = molecular target: T1, N6-Methyl-AMP deaminase (Homo sapiens) (UniProt Q6DHV7); test: (§1) Activity of recombinant human ADAL1 expressed in Escherichia coli by UV-spectrophotometry
T1 sequence (whole entry): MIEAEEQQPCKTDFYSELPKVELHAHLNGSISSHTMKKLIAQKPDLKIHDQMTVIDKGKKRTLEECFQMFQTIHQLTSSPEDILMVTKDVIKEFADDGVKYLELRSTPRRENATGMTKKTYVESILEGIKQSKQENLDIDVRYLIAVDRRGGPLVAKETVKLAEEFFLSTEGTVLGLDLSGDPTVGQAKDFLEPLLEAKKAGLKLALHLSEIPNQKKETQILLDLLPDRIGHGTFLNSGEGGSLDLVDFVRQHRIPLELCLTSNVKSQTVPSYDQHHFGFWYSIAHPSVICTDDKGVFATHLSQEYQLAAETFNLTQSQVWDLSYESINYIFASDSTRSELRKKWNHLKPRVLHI

[2] = substrate: CC(C)Oc1nc(N)nc2c1ncn2[C@@H]1O[C@H](COP(=O)(O)O)[C@@H](O)[C@@]1(C)F; test: (§2) Kcat/Km ratio of recombinant human ADAL1 expressed in Escherichia coli
[3] = substrate: CCOc1nc(N)nc2c1ncn2[C@@H]1O[C@H](COP(=O)(O)O)[C@@H](O)[C@@]1(C)F; test: as §2
[4] = substrate: CNc1ncnc2c1ncn2[C@@H]1O[C@H](COP(=O)(O)O)[C@@H](O)[C@H]1O; test: as §2
[5] = substrate: COc1nc(N)nc2c1ncn2[C@@H]1O[C@H](COP(=O)(O)O)[C@@H](O)[C@@]1(C)F; test: as §2
[6] = substrate: COc1nc(N)nc2c1ncn2[C@@H]1O[C@H](COP(=O)(O)O)[C@@H](O)[C@@]1(C)O; test: as §2
[7] = substrate: COc1nc(N)nc2c1ncn2[C@@H]1O[C@H](COP(=O)(O)O)[C@@H](O)[C@H]1O; test: as §2
[8] = substrate: COc1nc(N)nc2c1ncn2[C@H]1C[C@H](O)[C@@H](COP(=O)(O)O)O1; test: as §2
[9] = substrate: C[C@@]1(F)[C@H](O)[C@@H](COP(=O)(O)O)O[C@H]1n1cnc2c(N3CCC3)nc(N)nc21; test: as §2
[10] = substrate: Nc1nc(Cl)c2ncn([C@@H]3O[C@H](COP(=O)(O)O)[C@@H](O)[C@H]3O)c2n1; test: as §2
[11] = substrate: Nc1nc(NC2CC2)c2ncn([C@H]3C=C[C@@H](COP(=O)(O)O)C3)c2n1; test: as §2
[12] = substrate: Nc1ncnc2c1ncn2[C@@H]1O[C@H](COP(=O)(O)O)[C@@H](O)[C@H]1O; test: as §2
[13] = substrate: O=P(O)(O)OC[C@H]1O[C@@H](n2cnc3c(NC4CCCC4)ncnc32)[C@H](O)[C@@H]1O; test: as §2
[14] = substrate: CC(C)Oc1nc(N)nc2c1ncn2[C@@H]1O[C@H](COP(=O)(O)O)[C@@H](O)[C@@]1(C)F; test: as §1
[15] = substrate: CCOc1nc(N)nc2c1ncn2[C@@H]1O[C@H](COP(=O)(O)O)[C@@H](O)[C@@]1(C)F; test: as §1
[16] = substrate: CNc1ncnc2c1ncn2[C@@H]1O[C@H](COP(=O)(O)O)[C@@H](O)[C@H]1O; test: as §1
[17] = substrate: COc1nc(N)nc2c1ncn2[C@@H]1O[C@H](COP(=O)(O)O)[C@@H](O)[C@@]1(C)F; test: as §1
[18] = substrate: COc1nc(N)nc2c1ncn2[C@@H]1O[C@H](COP(=O)(O)O)[C@@H](O)[C@@]1(C)O; test: as §1
[19] = substrate: COc1nc(N)nc2c1ncn2[C@@H]1O[C@H](COP(=O)(O)O)[C@@H](O)[C@H]1O; test: as §1
[20] = substrate: COc1nc(N)nc2c1ncn2[C@H]1C[C@H](O)[C@@H](COP(=O)(O)O)O1; test: as §1
[21] = substrate: C[C@@]1(F)[C@H](O)[C@@H](COP(=O)(O)O)O[C@H]1n1cnc2c(N3CCC3)nc(N)nc21; test: as §1
[22] = substrate: Nc1nc(Cl)c2ncn([C@@H]3O[C@H](COP(=O)(O)O)[C@@H](O)[C@H]3O)c2n1; test: as §1
[23] = substrate: Nc1nc(NC2CC2)c2ncn([C@H]3C=C[C@@H](COP(=O)(O)O)C3)c2n1; test: as §1
[24] = substrate: Nc1ncnc2c1ncn2[C@@H]1O[C@H](COP(=O)(O)O)[C@@H](O)[C@H]1O; test: as §1
[25] = substrate: O=P(O)(O)OC[C@H]1O[C@@H](n2cnc3c(NC4CCCC4)ncnc32)[C@H](O)[C@@H]1O; test: as §1

In the case of `COc1nc(N)nc2c1ncn2[C@@H]1O[C@H](COP(=O)(O)N[C@@H](C)C(=O)O)[C@@H](O)[C@@]1(C)F`, the Activity [1] is reported as “inactive”.

For `Nc1nc(=S)c2ncn([C@@H]3O[C@H](COP(=O)(O)O)[C@@H](O)[C@H]3O)c2[nH]1`, the Activity [1] was “inactive”.

With `Nc1ncnc2c1ncn2[C@@H]1O[C@H](COP(N)(=O)O)[C@@H](O)[C@H]1O` the Activity [1] was “inactive”.

With `C[C@@]1(F)[C@H](O)[C@@H](COP(=O)(O)O)O[C@H]1n1ccc(N)nc1=O` the Activity [1] was “inactive”.

`COc1nc(N)nc2c1ncn2[C@@H]1O[C@H](CO)[C@@H](O)[C@H]1O` was tested, and the Activity [1] was “inactive”.

With `CCOc1nc(N)nc2c1ncn2[C@@H]1O[C@@H]2CO[P@](=O)(OC(C)C)O[C@H]2[C@@]1(C)F` the Activity [1] was “inactive”.

In the case of `Nc1nc(N)c2ncn([C@@H]3O[C@H](CO)[C@@H](O)[C@H]3O)c2n1`, the Activity [1] is reported as “inactive”.

In the case of `Nc1nc(NC2CC2)c2ncn([C@H]3C=C[C@@H](CO)C3)c2n1`, the Activity [1] is reported as “inactive”.

In the case of `CSc1nc(N)nc2c1ncn2[C@@H]1O[C@H](COP(=O)(O)O)[C@@H](O)[C@H]1O`, the Activity [1] is reported as “inactive”.

For `Nc1ccn([C@H]2C[C@H](O)[C@@H](COP(=O)(O)O)O2)c(=O)n1`, the Activity [1] was “inactive”.

With `Nc1ncnc2c1ncn2[C@@H]1O[C@H](CO)[C@@H](O)[C@H]1O` the Activity [1] was “inactive”.

In the case of `CCOc1nc(N)nc2c1ncn2[C@@H]1O[C@@H]2COP(=O)(O)O[C@H]2[C@@]1(C)F`, the Activity [1] is reported as “inactive”.

With `C[C@H](Cn1cnc2c(N)ncnc21)OCP(=O)(O)O` the Activity [1] was “inactive”.

`CNc1ncnc2c1ncn2[C@@H]1O[C@H](CO)[C@@H](O)[C@H]1O` was tested, and the Activity [1] was “inactive”.

In the case of `COc1nc(N)nc2c1ncn2[C@@H]1O[C@H](CO)[C@@H](O)[C@@]1(C)F`, the Activity [1] is reported as “inactive”.

With `CCOc1nc(N)nc2c1ncn2[C@@H]1O[C@H](COP(=O)(O)OP(=O)(O)OP(=O)(O)O)[C@@H](O)[C@@]1(C)F` the Activity [1] was “inactive”.

`CCOc1nc(N)nc2c1ncn2[C@@H]1O[C@H](CO)[C@@H](O)[C@@]1(C)F` was tested, and the Activity [1] was “inactive”.

In the case of `O=C(O)CC(Nc1ncnc2c1ncn2[C@@H]1O[C@H](COP(=O)(O)O)[C@@H](O)[C@H]1O)C(=O)O` (stereo not given in full), the Activity [1] is reported as “inactive”.

For `O=P(O)(O)OC[C@H]1O[C@@H](n2cnc3c2ncn2ccnc32)[C@H](O)[C@@H]1O`, the Activity [1] was “inactive”.

`COc1nc(N)nc2c1ncn2[C@@H]1O[C@H](COP(=O)(O)OP(=O)(O)O)[C@@H](O)[C@@]1(C)F` was tested, and the Activity [1] was “inactive”.

For `Nc1ncnc2c1ncn2CCOCP(=O)(O)O`, the Activity [1] was “inactive”.

With `Nc1nc(=O)[nH]c2c1ncn2[C@@H]1O[C@H](CO)[C@@H](O)[C@H]1O` the Activity [1] was “inactive”.

`COc1nc(N)nc2c1ncn2[C@@H]1O[C@H](COP(=O)(N[C@@H](C)C(=O)OC(C)C)Oc2ccccc2)[C@@H](O)[C@@]1(C)F` (stereo not given in full) was tested, and the Activity [1] was “inactive”.

With `CN1N=C(N)c2cn([C@@H]3O[C@H](COP(=O)(O)O)[C@@H](O)[C@H]3O)c3ncnc1c23` the Activity [1] was “inactive”.

B1: N6-Methyl-AMP deaminase (Homo sapiens), Q6DHV7 (protein)
chain: T1 sequence (whole entry)
B1 gave a kcat/Km [2] of 280000 M⁻¹ s⁻¹, a kcat/Km [3] of 320000 M⁻¹ s⁻¹ and a kcat/Km [4] of 130000 M⁻¹ s⁻¹. For the same molecule, the kcat/Km [5] was 650000 M⁻¹ s⁻¹, the kcat/Km [6] was 220000 M⁻¹ s⁻¹ and the kcat/Km [7] was 450000 M⁻¹ s⁻¹. For the same molecule, the kcat/Km [8] was 490000 M⁻¹ s⁻¹, the kcat/Km [9] was 180000 M⁻¹ s⁻¹ and the kcat/Km [10] was 223000 M⁻¹ s⁻¹. It also gave a kcat/Km [11] of 220000 M⁻¹ s⁻¹, a kcat/Km [12] of 1700 M⁻¹ s⁻¹ and a kcat/Km [13] of 300000 M⁻¹ s⁻¹. It also gave a Km [14] of 25.9 µM, a kcat [14] of 7.2 s⁻¹ and a Km [15] of 25.1 µM. The kcat [15] was 8.14 s⁻¹, the Km [16] was 12.5 µM and the kcat [16] was 1.58 s⁻¹. The Km [17] was 8.96 µM, the kcat [17] was 5.85 s⁻¹ and the Km [18] was 10.7 µM. For the same molecule, the kcat [18] was 2.36 s⁻¹, the Km [19] was 5.2 µM and the kcat [19] was 2.33 s⁻¹. The Km [20] was 6 µM, the kcat [20] was 2.92 s⁻¹ and the Km [21] was 8.63 µM. It also gave a kcat [21] of 1.55 s⁻¹, a Km [22] of 16.3 µM and a kcat [22] of 3.64 s⁻¹. It also gave a Km [23] of 7.37 µM, a kcat [23] of 1.63 s⁻¹ and a Km [24] of 32.8 µM. For the same molecule, the kcat [24] was 0.055 s⁻¹, the Km [25] was 14.3 µM and the kcat [25] was 4.24 s⁻¹.
